Pl data for 44 sequences are collected here from patent publication US20240197834A1, “PHARMACEUTICAL COMPOSITION FOR PREVENTING OR TREATING CHRONIC RENAL DISEASE INCLUDING GLUCAGON DERIVATIVE” (HANMI PHARM. CO., LTD., priority 2021, published 2024).

Bridge positions count the residues as written; N and C are the ends. Square brackets hold non-standard residues; d marks the D form. Ends that are not written are not given here. Aib = CC(C)(N)C(=O)O

A short description of the data set: pI of native glucagon and glucagon derivatives. The class given is physicochemical. As to the method: Accordingly, as described in Table 1 below, a native glucagon and glucagon derivatives having equivalent activity thereto were first prepared. Referring to WO 2016/108586, WO 2017/003191, and WO 2018/004283, the glucagon derivatives were synthesized, and pl and in vitro activity thereof were measured.
Take “HSQGTFTSDYSKYLDCDRAQDFVQWLMNT (glucagon derivative) [SEQ ID NO: 2]”: the pl was 4.56. With “HSQGTFTSDYSKYLDCERAQDFVQWLMNT (glucagon derivative) [SEQ ID NO: 3]” the figure was 4.66. With “HSQGTFTSDYSKYLDSCDAQDFVQWLMNT (glucagon derivative) [SEQ ID NO: 4]” the figure was 4.13; with “HSQGTFTSDYSKYLDSCEADDFVQWLMNT (glucagon derivative) [SEQ ID NO: 6]”, 4.03. With “HSQGTFTSDYSKYLDSCEAQDFVQWLMNT (glucagon derivative) [SEQ ID NO: 5]” the figure was 4.22. “SQGTFTSDYSKYLDECRAKEFVQWLMNT (lactam 15-19) [SEQ ID NO: 32]”: the pl stood at 4.78. With “WXQGTFTSDYSKCLDERRAKDFVQWLMNT (W[Aib]QGTFTSDYSKCLDERRAKDFVQWLMNT; lactam 16-20) [SEQ ID NO: 30]” the figure was 4.44; with “WXQGTFTSDYSKYCDERRAKEFVQWLMNT (W[Aib]QGTFTSDYSKYCDERRAKEFVQWLMNT; lactam 16-20) [SEQ ID NO: 34]”, 6.21. Then “WXQGTFTSDYSKYLDECRAKDFVQWLMNT (W[Aib]QGTFTSDYSKYLDECRAKDFVQWLMNT; lactam 16-20) [SEQ ID NO: 26]”, with 4.68; and “WXQGTFVSDYSKYLDECRAKDFVQWLMNT (W[Aib]QGTFVSDYSKYLDECRAKDFVQWLMNT; lactam 16-20) [SEQ ID NO: 28]”, with 4.68; and “YSQGTFTSDYSKYLDSCEADDFVQWLMNT (glucagon derivative) [SEQ ID NO: 7]”, with 3.71. Sequence “YXQGTFCSDYSKYLDERRAKDFVQWLMNT (Y[Aib]QGTFCSDYSKYLDERRAKDFVQWLMNT; lactam 16-20) [SEQ ID NO: 41]” gave a pl of 6.03. The sequence “YXQGTFCSDYSKYLDERRAKEFVQWLMNT (Y[Aib]QGTFCSDYSKYLDERRAKEFVQWLMNT; lactam 16-20) [SEQ ID NO: 38]” registered a pl of 6.15.

“YXQGTFCSDYSKYLDSRRAQDFVQWLMNT (Y[Aib]QGTFCSDYSKYLDSRRAQDFVQWLMNT) [SEQ ID NO: 42]” returned a pl of 6.03.

“YXQGTFTSDCSKYLDERRAKEFVQWLMNT (Y[Aib]QGTFTSDCSKYLDERRAKEFVQWLMNT; lactam 16-20) [SEQ ID NO: 36]” registered a pl of 6.21. In turn, “YXQGTFTSDCSKYLDSRRAQDFVQWLMNT (Y[Aib]QGTFTSDCSKYLDSRRAQDFVQWLMNT) [SEQ ID NO: 43]” came in with a pl of 6.03. In the case of “YXQGTFTSDYSCYLDEKRAKEFVQWLMNT (Y[Aib]QGTFTSDYSCYLDEKRAKEFVQWLMNT) [SEQ ID NO: 45]”, the pl is on record as 4.78. Then “YXQGTFTSDYSCYLDSRRAQDFVQWLMNT (Y[Aib]QGTFTSDYSCYLDSRRAQDFVQWLMNT) [SEQ ID NO: 13]”, with 4.43; and “YXQGTFTSDYSKCLDEKRAKEFVQWLMNT (Y[Aib]QGTFTSDYSKCLDEKRAKEFVQWLMNT; lactam 16-20) [SEQ ID NO: 24]”, with 6.21.

“YXQGTFTSDYSKCLDERRAKDFVQWLMNT (Y[Aib]QGTFTSDYSKCLDERRAKDFVQWLMNT; lactam 16-20) [SEQ ID NO: 29]” displayed a pl of 6.15. Regarding “YXQGTFTSDYSKYCDEKRAKEFVQWLMNT (Y[Aib]QGTFTSDYSKYCDEKRAKEFVQWLMNT; lactam 16-20) [SEQ ID NO: 23]”, the pl came to 6.20. Then “YXQGTFTSDYSKYCDERRAKEFVQWLMNT (Y[Aib]QGTFTSDYSKYCDERRAKEFVQWLMNT; lactam 16-20) [SEQ ID NO: 35]”, with 6.2. With “YXQGTFTSDYSKYLCEKRAKEFVQWLMNT (Y[Aib]QGTFTSDYSKYLCEKRAKEFVQWLMNT; lactam 16-20) [SEQ ID NO: 19]” the figure was 8.12. “YXQGTFTSDYSKYLCEKRAQDFVVWLMNT (Y[Aib]QGTFTSDYSKYLCEKRAQDFVVWLMNT) [SEQ ID NO: 15]”: the pl stood at 6.11. Then “YXQGTFTSDYSKYLDCKRAKEFVQWLMNT (Y[Aib]QGTFTSDYSKYLDCKRAKEFVQWLMNT; lactam 17-21) [SEQ ID NO: 31]”, with 8.12. Turning to “YXQGTFTSDYSKYLDCKRAKEFVQWLMNT [SEQ ID NO: 14] (Y[Aib]QGTFTSDYSKYLDCKRAKEFVQWLMNT)”, the pl is 8.12. As to “YXQGTFTSDYSKYLDCRRAQVFVQWLMRT (Y[Aib]QGTFTSDYSKYLDCRRAQVFVQWLMRT) [SEQ ID NO: 16]”, the pl was determined as 9.11. For the sequence “YXQGTFTSDYSKYLDCVRAQDFVQWLMRT (Y[Aib]QGTFTSDYSKYLDCVRAQDFVQWLMRT) [SEQ ID NO: 17]”, the pl amounted to 6.03. With “YXQGTFTSDYSKYLDECRAKEFVQWLMNT (Y[Aib]QGTFTSDYSKYLDECRAKEFVQWLMNT; lactam 16-20) [SEQ ID NO: 20]”, the pl is 4.78. With “YXQGTFTSDYSKYLDEKCAKEFVQWLMNT [SEQ ID NO: 11] (Y[Aib]QGTFTSDYSKYLDEKCAKEFVQWLMNT)” the figure was 4.78. With “YXQGTFTSDYSKYLDEKCAKEFVQWLMNT [SEQ ID NO: 21] (Y[Aib]QGTFTSDYSKYLDEKCAKEFVQWLMNT; lactam 16-20)” the figure was 4.78; with “YXQGTFTSDYSKYLDEKRAKCFVQWLMNT (Y[Aib]QGTFTSDYSKYLDEKRAKCFVQWLMNT; lactam 16-20) [SEQ ID NO: 25]”, 8.12.

With “YXQGTFTSDYSKYLDEKRAKEFVQWLMNTC (Y[Aib]QGTFTSDYSKYLDEKRAKEFVQWLMNTC; lactam 16-20) [SEQ ID NO: 12]”, the pl came to 6.20. Consider “YXQGTFTSDYSKYLDEKRCKEFVQWLMNT (Y[Aib]QGTFTSDYSKYLDEKRCKEFVQWLMNT; lactam 16-20) [SEQ ID NO: 22]”, for which the pl is reported as 6.20.

The sequence “YXQGTFTSDYSKYLDERRAKEFVQWLMNTC (Y[Aib]QGTFTSDYSKYLDERRAKEFVQWLMNTC; lactam 16-20) [SEQ ID NO: 37]” returned a pl of 6.21.

With “YXQGTFTSDYSKYLDSCDADDFVVWLINT (Y[Aib]QGTFTSDYSKYLDSCDADDFVVWLINT) [SEQ ID NO: 10]”, the pl came to 3.66. Sequence “YXQGTFTSDYSKYLDSCDAQDFVQWLINT (Y[Aib]QGTFTSDYSKYLDSCDAQDFVQWLINT) [SEQ ID NO: 8]” yielded a pl of 3.77. Then “YXQGTFTSDYSKYLDSCDAQDFVVWLINT (Y[Aib]QGTFTSDYSKYLDSCDAQDFVVWLINT) [SEQ ID NO: 9]”, with 3.77; and “YXQGTFTSDYSKYLDSRRACDFRLWLMNT (Y[Aib]QGTFTSDYSKYLDSRRACDFRLWLMNT) [SEQ ID NO: 18]”, with 8.15; and “YXQGTFTSDYSKYLDSRRAQDFVQWLMNT (X non-natural residue; glucagon derivative; (2) Xaa is aminoisobutyric acid (Aib)) [SEQ ID NO: 33]”, with 6.04. Sequence “YXQGTFTSDYSKYLDSRRAQDFVQWLMNTC (glucagon derivative; (2) Xaa is aminoisobutyric acid (Aib)) [SEQ ID NO: 44]” showed a pl of 6.21. “YXQGTFVSDCSKYLDERRAKDFVQWLMNT (Y[Aib]QGTFVSDCSKYLDERRAKDFVQWLMNT; lactam 16-20) [SEQ ID NO: 39]” displayed a pl of 6.15. Then “YXQGTFVSDYSKYLDECRAKDFVQWLMNT (Y[Aib]QGTFVSDYSKYLDECRAKDFVQWLMNT; lactam 16-20) [SEQ ID NO: 27]”, with 4.68.

On to “YXQGTFVSDYSKYLDERRAKDFVQWLMNTC (Y[Aib]QGTFVSDYSKYLDERRAKDFVQWLMNTC; lactam 16-20) [SEQ ID NO: 40]”, for which the pl came out at 6.15.
